Results: patent US20250092112A1 (HEMOGENYX PHARMACEUTICALS, published 2025)

Target: T1, SARS-CoV-2 Spike protein (wild-type), biotinylated (MyBioSource) (SARS-CoV-2, UniProt P0DTC2 16-1213)
T1 construct: also called WT SARS-CoV-2 Spike; wild-type Spike
Experiment: binding of spike to ACE2-fragment constructs; assay not described

Binder | binding result
CAR-based construct 1: CD8 signal peptide+ACE2 (19-358)+CD8 hinge+CD8 TM domain+CD3ζ intracellular domain (receptor, domain: CD8 hinge;domain: CD8 TM domain;domain: CD3ζ intracellular domain) not shown | no binding
CAR-based construct 2: CD8 signal peptide+ACE2 (19-605)+CD8 hinge+CD8 TM domain+CD3ζ intracellular domain (receptor, domain: CD8 hinge;domain: CD8 TM domain;domain: CD3ζ intracellular domain) not shown | no binding
